Values quoted from earlier work in patent publication US8759488B2, “High stability streptavidin mutant proteins” (Isis Innovation Limited, priority 2009, dated 2014).
“And” between values parts separate entries of the source, which are not always exact repeats. Equal entries are not always repeated.

B1: monomeric streptavidin: streptavidin subunit unable to tetramerise, e.g. with mutations T76R, V125R, V55T and L109T (protein)
chain: DPSKDSKAQVSAAEAGITGTWYNQLGSTFIVTAGADGALTGTYESAVGNAESRYTLTGRYDSAPATDGSGTALGWRVAWKNNYRNAHSATTWSGQYVGGAEARINTQWTLTSGTTEANAWKSTLRGHDTFTKVKPSAASIDAAKKAGVNNGNPLDAVQQ
For B1, the “half life for biotin” value (biotin) is given as “approximately 3 minutes” and the “off rate of biotin” value (free biotin) is given as 0.0034 s⁻¹ and 0.0041 s⁻¹.
